Laboratory results from patent US20070014776A1, “Identification of adiponutrin-related proteins as esterases and methods of use for the same” (priority 2005, published 2007).
Each block holds one molecule with its values, some of them ahead of it.

Key:
3T3-L1 adipocytes = experiment: Effect of adiponutrin overexpression on 3T3-L1 lipase activity (free fatty acid and glycerol release); format: cell-based, mouse
Experimental: For adenovirus infection, 3T3-L1 cells were cultured in DMEM with 10% FBS at 37° C. with 5% CO2. Two days after the cultures were confluent, the cells were induced to differentiate (defined as day 0) by incubation in DMEM supplemented with 10% FBS, 1 μM dexamethasone (Sigma, St. Louis, Mo.), 0.5 mM isobutylmethylxanthine (Sigma) (MIX), and 1 μg/ml insulin (Sigma). After two days, the medium was replaced with DMEM supplemented with 10% FBS and 1 μg/ml insulin, and cells were then fed every 2 days with the same medium. At day 8 of differentiation, cells grown in 24-well plates were incubated with 500 MOI of adenovirus in OPTI-MEM (Invitrogen, Carlsbad, Calif.) for 2 hours and then DMEM with 10% FBS. After 48 hours, cells were incubated with DMEM with no serum overnight. The next day, cells were washed three times with PBS and incubated with PBS with 2% fatty acid-free BSA (Sigma, St. Louis, Mo.) with 10 μM or 100 nM of isoproterenol (Sigma). When needed, cells were preincubated with 100 nM insulin 30 min prior to isoproterenol treatment. Conditioned medium was taken at the indicated 0-4 hours after isoproterenol treatment and analyzed for free fatty acids and glycerol. Free fatty acids release was measured by using a NEFA-c kit (Wako Chemicals, Richmond, Va.) and glycerol release was measured by using a lipolysis kit (Zen-bio, Research Triangle Park, N.C.).

HEK293 cells = experiment: [1-14C]-oleic acid incorporation into triglyceride in transfected HEK293 cells; format: cell-based; conditions: overexpression in HEK293 cells; for intracellular triglycerides: compared to control cells (empty vector), FIG. 7
Experimental: HEK293 cells were cultured in Dulbecco's modified Eagle's medium (DMEM) that contained 10% FBS at 37° C. with 5% CO2. HEK293 cells grown in 12-well plates to 60-70% confluence were transfected with 0.5 μg of human adiponutrin, desnutrin/ATGL, GS2, or GS2-like expression vector using FuGene (Roche). Empty vector, pADORI1.2 was used as a control. After 48 hours, cells were treated with 4 μM [1-^14C]-oleic acid (204 μCi/ml total; Perkin Elmer) and 16 μM cold oleic acid (Sigma) in serum-free DMEM. After 4 hours, cells were washed twice and incubated further with DMEM with 10% FBS. After 16 hours, lipids were extracted and separated by TLC using hexane/ether/acetic acid (80:20:1). Radioactive lipids were detected and quantitated by Molecular Imager FX (Bio-Rad).

[1] = Lipase assay with DGGR substrate on immunoprecipitated V5-tagged proteins; format: biochemical; conditions: V5-tagged WT vs patatin-like domain mutant (Ser of GXSXG to Ala); FIG. 6
Experimental: HEK293 cells were grown in DMEM media supplemented with 10% fetal calf serum at 37° C. in an atmosphere of 5% CO2. Ten cm tissue culture dishes with 90% confluent HEK293 cells were transfected using Lipofectamine 2000 according to the manufacturer's instructions (Invitrogen, Carlsbad, Calif.). Ten μg of plasmid DNA containing the following expression constructs were used: GFP, human adiponutrin, human adiponutrin-c-term-V5, human desnutrin/ATGL-c-term-V5-6His, human GS2-c-term-V5, human GS2-like-c-term-V5-6His, and patatin-like domain mutants of c-term-V5 and c-term-V5-6His tagged constructs. Three days post-transfection, cells were washed with ice cold TBS and harvested. Cells were pelleted by centrifugation at 1000×g for 5 minutes. Supernatant was discarded, and pellets stored at −80° C. until used for assays.
Frozen cells, as described above, were resuspended in 1 ml of lipase reaction buffer (20 mM Tris-HCl, pH 8.0, 150 mM NaCl, 0.53% sodium taurodeoxycholate, 1.33 mM CaCl2) containing complete mini-protein inhibitor tablets (Invitrogen, Carlsbad, Calif.; 1 tablet per 7 ml). The resulting suspensions were then sonicated on ice with 4 bursts of 10 seconds from a probe sonicator. Homogenized lysate was then centrifuged at 1000×g for 10 minutes to remove cell debris. A 50 μl aliquot of the resulting lysate was saved for analysis and the remaining lysate was used for the immunoprecipitation. Anti-V5 mouse monoclonal antibody (7.2 μg; Invitrogen, Carlsbad, Calif.) was added to each lysate and then placed at 4° C. overnight with tumbling. Next, 20 μl of protein-A beads (Repligen) was added to each sample and tumbled at 4° C. for 2 hours. Beads were then pelleted with gentle centrifugation and […] of supernatant was saved for analysis. The beads were washed 4 times with 900 μl of lipase reaction buffer followed by resuspension in 100 μl of lipase reaction buffer.
The lipase assay (Lehner and Verger (1997) Biochemistry 36:1861-68) uses 1,2-o-dilauryl-rac-glycero-3-glutaric acid-(6′-methylresorufin) ester (DGGR) as substrate. DGGR is cleaved by lipase, resulting in an unstable dicarbonic acid ester that is spontaneously hydrolyzed to yield glutaric acid and methylresorufin, a bluish-purple chromophore with peak absorption at 581 nm. The rate of methylresorufin formation is directly proportional to the lipase activity in the sample. Ten μl of whole cell lysate or IP beads were added to the wells of a 96-well plate. After diluting the samples up to 125 μl in lipase reaction buffer, 125 μl of reaction buffer containing DGGR (final concentration 36 μg/ml in a final assay volume of 250 μl per well). After mixing, OD 581 was monitored at 5 minute intervals for 2 hours to assess lipase activity. Lipase activity is plotted as delta-OD 581/sec. […]

[2] = adenoviral overexpression in 3T3-L1 adipocytes, after treatment with 10 μM isoproterenol, vs GFP, FIG. 8

isoproterenol-stimulated lipolysis (3T3-L1 adipocytes; submaximal isoproterenol, preincubation with 100 nM insulin, FIG. 9): decreased
Molecule: insulin [reference compound]

rate of lipid hydrolysis, wild-type versus active-site serine to alanine mutant [1]: significantly higher
B1: GS2: human GS2 protein, SEQ ID NO:8; adiponutrin family member (protein, listed as Homo sapiens)
chain: MKHINLSFAACGFLGIYHLGAASALCRHGKKLVKDVKAFAGASAGSLVASVLLTAPEKIEECNQFTYKFAEEIRRQSFGAVTPGYDFMARLRSGMESILPPSAHELAQNRLHVSITNAKTRENHLVSTFSSREDLIKVLLASSFVPIYAGLKLVEYKGQKWVDGGLTNALPILPVGRTVTISPFSGRLDISPQDKGQLDLYVNIAKQDIMLSLANLVRLNQALFPPSKRKMESLYQCGFDDTVKFLLKENWFE
intracellular triglycerides (HEK293 cells): decreased intracellular triglycerides significantly

rate of lipid hydrolysis, wild-type versus active-site serine to alanine mutant [1]: significantly higher
B2: desnutrin/ATGL: human desnutrin/adipocyte triglyceride lipase protein, SEQ ID NO:5 (protein, listed as Homo sapiens)
chain: MFPREKTWNISFAGCGFLGVYYVGVASCLREHAPFLVANATHIYGASAGALTATALVTGVCLGEAGAKFIEVSKEARKRFLGPLHPSFNLVKIIRSFLLKVLPADSHEHASGRLGISLTRVSDGENVIISHFNSKDELIQANVCSGFIPVYCGLIPPSLQGVRYVDGGISDNLPLYELKNTITVSPFSGESDICPQDSSTNIHELRVTNTSIQFNLRNLYRLSKALFPPEPLVLREMCKQGYRDGLRFLQRNGLLNRPNPLLALPPARPHGPEDKDQAVESAQAEDYSQLPGEDHILEHLPARLNEALLEACVEPTDLLTTLSNMLPVRLATAMMVPYTLPLESALSFTIRLLEWLPDVPEDIRWMKEQTGSICQYLVMRAKRKLGRHLPSRLPEQVELRRVQSLPSVPLSCAAYREALPGWMRNNLSLGDALAKWEECQRQLLLGLFCTNVAFPPEALRMRAPADPAPAPADPASPQHQPAGPAPLLSTPAPEARPVIGALGL
intracellular triglycerides (HEK293 cells): significant decrease

release of free fatty acids into the medium (3T3-L1 adipocytes; [2]): significantly decreased | release of glycerol into the medium (3T3-L1 adipocytes; [2]): significantly decreased | basal lipolysis (3T3-L1 adipocytes; adenoviral overexpression in 3T3-L1 adipocytes, no isoproterenol, FIG. 9): no effect | inhibition of lipolysis by insulin (3T3-L1 adipocytes; adenoviral overexpression in 3T3-L1 adipocytes, submaximal isoproterenol plus insulin, FIG. 9): significantly enhanced | rate of lipid hydrolysis, wild-type versus active-site serine to alanine mutant [1]: significantly higher
B3: adiponutrin: human adiponutrin protein, SEQ ID NO:2; patatin-like domain protein of the adiponutrin family, expressed recombinantly (protein, listed as Homo sapiens)
chain: MYDAERGWSLSFAGCGFLGFYHVGATRCLSEHAPHLLRDARMLFGASAGALHCVGVLSGIPLEQTLQVLSDLVRKARSRNIGIFHPSFNLSKFLRQGLGKCLPANVHQLISGKIGISLTRVSDGENVLVSDFRSKDEVVDALVCSCFMPFYSGLIPPSFRGVRYVDGGVSDNVPFIDAKTTITVSPFYGEYDICPKVKSTNFLHVDITKLSLRLCTGNLYLLSRAFVPPDLKVLGEICLRGYLDAFRFLEEKGICNRPQPGLKSSSEGMDPEVAMPSWANMSLDSSPESAALAVRLEGDELLDHLRLSILPWDESILDTLSPRLATALSEEMKDKGGYMSKICNLLPIRIMSYVMLPCTLPVESAIAIVQRLVTWLPDMPDDVLWLQWVTSQVFTRVLMCLLPASRSQMPVSSQQASPCTPEQDWPCWTPCSPEGCPAETKAEATPRSILRSSLNFFLGNKVPAGAEGLSTFPSFSLEKSL
intracellular triglycerides (HEK293 cells): unable to demonstrate a decrease | triglyceride incorporation (HEK293 cells; in several experiments (data not shown)): trend toward increased triglyceride incorporation

rate of lipid hydrolysis, wild-type versus active-site serine to alanine mutant [1]: not affected
B4: GS2-like: human GS2-like protein, SEQ ID NO:11; adiponutrin family member (protein, listed as Homo sapiens)
chain: MGFLEEEGRWNLSFSGAGYLGAHHVGATECLRQRAPRLLQGARRIYGSSSGALNAVSIVCGKSVDFCCSHLLGMVGQLERLSLSILHPAYAPIEHVKQQLQDALPPDAHVLASQRLGISLTRWPDGRNFLVTDFATCDELIQALVCTLYFPFYCGLIPPEFRGERYIDGALSNNLPFADCPSTITVSPFHGTVDICPQSTSPNLHELNVFNFSFQISTENFFLGLICLIPPSLEVVADNCRQGYLDALRFLERRGLTKEPVLWTLVSKEPPAPADGNWDAGCDQRWKGGLSLNWKVPHVQVKDVPNFEQLSPELEAALKKACTRDPSRWARFWHSGPGQVLTYLLLPCTLPFEYIYFRSRRLVVWLPDVPADLWWMQGLLRNMALEVFSRTKAQLLGPISPPATRVLETSPLQPQIAPHREELGPTHQA
intracellular triglycerides (HEK293 cells): decreased intracellular triglycerides significantly
